From patent US20210284725A1 (Genentech, published 2021) come the findings set out here.

To fix the notation:
B1: 1E1v4 (antibody, human IgG1, V domains shown)
VH: EVQLVESGGGLVQPGGSLRLSCAASGFTFNNYWMTWIRQAPGKGLEWIASITYTGGGTYYPDSVKGRFTISRDDAKSSLYLQMNSLRAEDTAVYYCTRANYYYNTYGGFPYWGQGTLVTVSS
VL: DIQMTQSPSSLSASVGDRVTITCLASEGFSNDLAWYQQKPGKSPKLLIYAASRLQDGVPSRFSGSGSGTDFTLTISSLQPEDFATYFCQQGSKYPLTFGGGTKVEIK
notes: Humanized 1E1 variant, human IgG1 backbone, expressed in Expi293F
B2: 1E1v8 (human IgG1) (antibody, V domains shown)
VH: EVQLVESGGGLVQPGGSLRLSCAASGFTFNNYWMTWIRQAPGKGLEWVASITYTGGGTYYPDSVKGRFTISRDDAKSSLYLQMNSLRAEDTAVYYCTRANYYYNTYGGFPYWGQGTLVTVSS
VL: DIQMTQSPSSLSASVGDRVTITCLASEGFSNDLAWYQQKPGKSPKLLIYAASRLQDGVPSRFSGSGSGTDFTLTISSLQPEDFATYFCQQGSKYPLTFGGGTKVEIK
B3: 1E1v9 (antibody, human IgG1, V domains shown)
VH: EVQLVESGGGLVQPGGSLRLSCAASGFTFNNYWMTWIRQAPGKGLEWIASITYTGGGTYYPDSVKGRFTISRDDAKSSLYLQMNSLRAEDTAVYYCTRANYYYNTYGGFPYWGQGTLVTVSS
VL: DIQMTQSPSSLSASVGDRVTITCLASEGFSNDLAWYQQKPGKAPKSLIYAASRLQDGVPSRFSGSGSGTDFTLTISSLQPEDFATYFCQQGSKYPLTFGGGTKVEIK
notes: as for B1
B4: 1E1v10 (antibody, human IgG1, V domains shown)
VH: EVQLVESGGGLVQPGGSLRLSCAASGFTFNNYWMTWVRQAPGKGLEWVASITYTGGGTYYPDSVKGRFTISRDDAKSSLYLQMNSLRAEDTAVYYCTRANYYYNTYGGFPYWGQGTLVTVSS
VL: DIQMTQSPSSLSASVGDRVTITCLASEGFSNDLAWYQQKPGKAPKSLIYAASRLQDGVPSRFSGSGSGTDFTLTISSLQPEDFATYFCQQGSKYPLTFGGGTKVEIK
notes: as for B1
B5: 1E1v15 (antibody, human IgG1, V domains shown)
VH: EVQLVESGGGLVQPGGSLRLSCAASGFTFNNYWMTWVRQAPGKGLEWVASITYTGGGTYYPDSVKGRFTISRDDAKSSLYLQMNSLRAEDTAVYYCTRANYYYNTYGGFPYWGQGTLVTVSS
VL: DIQMTQSPSSLSASVGDRVTITCLASEGFSNDLAWFQQKPGKAPKSLIYAASRLQDGVPSRFSGSGSGTDFTLTISSLQPEDFATYFCQQGSKYPLTFGGGTKVEIK
notes: as for B1
B6: 1E1v18 (antibody, human IgG1, V domains shown)
VH: EVQLVESGGGLVQPGGSLRLSCAASGFTFNNYWMTWVRQAPGKGLEWIASITYTGGGTYYPDSVKGRFTISRDDAKSSLYLQMNSLRAEDTAVYYCTRANYYYNTYGGFPYWGQGTLVTVSS
VL: DIQMTQSPSSLSASVGDRVTITCLASEGFSNDLAWFQQKPGKAPKSLIYAASRLQDGVPSRFSGSGSGTDFTLTISSLQPEDFATYFCQQGSKYPLTFGGGTKVEIK
notes: as for B1
B7: 1E1v17 (antibody, human IgG1, V domains shown)
VH: EVQLVESGGGLVQPGGSLRLSCAASGFTFNNYWMTWVRQAPGKGLEWVASITYTGGGTYYPDSVKGRFTISRDNAKSSLYLQMNSLRAEDTAVYYCTRANYYYNTYGGFPYWGQGTLVTVSS
VL: DIQMTQSPSSLSASVGDRVTITCLASEGFSNDLAWFQQKPGKAPKSLIYAASRLQDGVPSRFSGSGSGTDFTLTISSLQPEDFATYFCQQGSKYPLTFGGGTKVEIK
notes: as for B1
B8: 1E1v23 (antibody, human IgG1, V domains shown)
VH: EVQLVESGGGLVQPGGSLRLSCAASGFTFNNYWMTWVRQAPGKGLEWIASITYTGGGTYYPDSVKGRFTISRDDAKSSLYLQMNSLRAEDTAVYYCTRANYYYNTYGGFPYWGQGTLVTVSS
VL: DIQMTQSPSSLSASVGDRVTITCLASEGFSNDLAWYQQKPGKAPKSLIYAASRLQDGVPSRFSGSGSGTDFTLTISSLQPEDFATYYCQQGSKYPLTFGGGTKVEIK
notes: as for B1
B9: 1E1v7 (antibody, human IgG1, V domains shown)
VH: EVQLVESGGGLVQPGGSLRLSCAASGFTFNNYWMTWVRQAPGKGLEWVASITYTGGGTYYPDSVKGRFTISRDNAKSSLYLQMNSLRAEDTAVYYCTRANYYYNTYGGFPYWGQGTLVTVSS
VL: DIQMTQSPSSLSASVGDRVTITCLASEGFSNDLAWYQQKPGKSPKLLIYAASRLQDGVPSRFSGSGSGTDFTLTISSLQPEDFATYFCQQGSKYPLTFGGGTKVEIK
notes: as for B1
B10: 1E1v5 (antibody, human IgG1, V domains shown)
VH: EVQLVESGGGLVQPGGSLRLSCAASGFTFNNYWMTWVRQAPGKGLEWVASITYTGGGTYYPDSVKGRFTISRDDAKSSLYLQMNSLRAEDTAVYYCTRANYYYNTYGGFPYWGQGTLVTVSS
VL: DIQMTQSPSSLSASVGDRVTITCLASEGFSNDLAWYQQKPGKSPKLLIYAASRLQDGVPSRFSGSGSGTDFTLTISSLQPEDFATYFCQQGSKYPLTFGGGTKVEIK
notes: as for B1
B11: 1E1v3 (antibody, human IgG1, V domains shown)
VH: EVQLVESGGGLVQPGGSLRLSCAASGFTFNNYWMTWVRQAPGKGLEWVASITYTGGGTYYPDSVKGRFTISRDNAKNSLYLQMNSLRAEDTAVYYCTRANYYYNTYGGFPYWGQGTLVTVSS
VL: DIQMTQSPSSLSASVGDRVTITCLASEGFSNDLAWYQQKPGKSPKLLIYAASRLQDGVPSRFSGSGSGTDFTLTISSLQPEDFATYFCQQGSKYPLTFGGGTKVEIK
notes: as for B1
B12: 1E1v6 (antibody, human IgG1, V domains shown)
VH: EVQLVESGGGLVQPGGSLRLSCAASGFTFNNYWMTWVRQAPGKGLEWVASITYTGGGTYYPDSVKGRFTISRDDAKNSLYLQMNSLRAEDTAVYYCTRANYYYNTYGGFPYWGQGTLVTVSS
VL: DIQMTQSPSSLSASVGDRVTITCLASEGFSNDLAWYQQKPGKSPKLLIYAASRLQDGVPSRFSGSGSGTDFTLTISSLQPEDFATYFCQQGSKYPLTFGGGTKVEIK
notes: as for B1
B13: 1E1v11 (antibody, human IgG1, V domains shown)
VH: EVQLVESGGGLVQPGGSLRLSCAASGFTFNNYWMTWVRQAPGKGLEWVASITYTGGGTYYPDSVKGRFTISRDDAKNSLYLQMNSLRAEDTAVYYCTRANYYYNTYGGFPYWGQGTLVTVSS
VL: DIQMTQSPSSLSASVGDRVTITCLASEGFSNDLAWYQQKPGKAPKSLIYAASRLQDGVPSRFSGSGSGTDFTLTISSLQPEDFATYFCQQGSKYPLTFGGGTKVEIK
notes: as for B1
B14: 1E1v22 (antibody, human IgG1, V domains shown)
VH: EVQLVESGGGLVQPGGSLRLSCAASGFTFNNYWMTWVRQAPGKGLEWVASITYTGGGTYYPDSVKGRFTISRDNAKSSLYLQMNSLRAEDTAVYYCTRANYYYNTYGGFPYWGQGTLVTVSS
VL: DIQMTQSPSSLSASVGDRVTITCLASEGFSNDLAWYQQKPGKAPKSLIYAASRLQDGVPSRFSGSGSGTDFTLTISSLQPEDFATYYCQQGSKYPLTFGGGTKVEIK
notes: as for B1
B15: 1E1v14 (antibody, human IgG1, V domains shown)
VH: EVQLVESGGGLVQPGGSLRLSCAASGFTFNNYWMTWIRQAPGKGLEWIASITYTGGGTYYPDSVKGRFTISRDDAKSSLYLQMNSLRAEDTAVYYCTRANYYYNTYGGFPYWGQGTLVTVSS
VL: DIQMTQSPSSLSASVGDRVTITCLASEGFSNDLAWFQQKPGKAPKSLIYAASRLQDGVPSRFSGSGSGTDFTLTISSLQPEDFATYFCQQGSKYPLTFGGGTKVEIK
notes: as for B1
B16: 1E1v2 (antibody, human IgG1, V domains shown)
VH: EVQLVESGGGLVQPGGSLRLSCAASGFTFNNYWMTWIRQAPGKGLEWIASITYTGGGTYYPDSVKGRFTISRDDAKSSLYLQMNSLRAEDTAVYYCTRANYYYNTYGGFPYWGQGTLVTVSS
VL: DIQMTQSPSSLSASVGDRVTITCLASEGFSNDLAWFQQKPGKAPKSLIYAASRLQDGVPSRFSGSGSGTDFTLTISSLQPEDFATYYCQQGSKYPLTFGGGTKVEIK
notes: as for B1
B17: 1E1v1 (antibody, human IgG1, V domains shown)
VH: EVQLVESGGGLVQPGGSLRLSCAASGFTFNNYWMTWVRQAPGKGLEWVASITYTGGGTYYPDSVKGRFTISRDNAKNSLYLQMNSLRAEDTAVYYCTRANYYYNTYGGFPYWGQGTLVTVSS
VL: DIQMTQSPSSLSASVGDRVTITCLASEGFSNDLAWFQQKPGKAPKSLIYAASRLQDGVPSRFSGSGSGTDFTLTISSLQPEDFATYYCQQGSKYPLTFGGGTKVEIK
notes: as for B1
B18: 1E1v16 (antibody, human IgG1, V domains shown)
VH: EVQLVESGGGLVQPGGSLRLSCAASGFTFNNYWMTWVRQAPGKGLEWVASITYTGGGTYYPDSVKGRFTISRDDAKNSLYLQMNSLRAEDTAVYYCTRANYYYNTYGGFPYWGQGTLVTVSS
VL: DIQMTQSPSSLSASVGDRVTITCLASEGFSNDLAWFQQKPGKAPKSLIYAASRLQDGVPSRFSGSGSGTDFTLTISSLQPEDFATYFCQQGSKYPLTFGGGTKVEIK
notes: as for B1

For one assay, the target named is T1, human IL-33 (human, UniProt O95760 112-270, limits assumed).
T1 sequence (looked up): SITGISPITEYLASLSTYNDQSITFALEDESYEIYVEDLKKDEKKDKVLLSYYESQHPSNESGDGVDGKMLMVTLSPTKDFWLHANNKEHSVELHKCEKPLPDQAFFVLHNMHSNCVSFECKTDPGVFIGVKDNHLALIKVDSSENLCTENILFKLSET
Description: cell-based or functional assay.
Consider B1, for which the “IC50 (M), IL-33 neutralization activity, HEK-BLUE IL-33 cells, human IL-33 at 160 pM” value (“IC50 (M), IL-33 neutralization activity” below) turned out to be 3.11e-11 M.

For the molecule B2, the “IC50 (M), IL-33 neutralization activity” value was found to be 3.11e-11 M.

Take B3: the “IC50 (M), IL-33 neutralization activity” value is 3.05e-11 M.

The next assay has as its target T2, human IL-33 (His-tagged) (human, UniProt O95760 112-270, limits assumed).
T2 construct: not shown: His tag
T2 sequence (looked up): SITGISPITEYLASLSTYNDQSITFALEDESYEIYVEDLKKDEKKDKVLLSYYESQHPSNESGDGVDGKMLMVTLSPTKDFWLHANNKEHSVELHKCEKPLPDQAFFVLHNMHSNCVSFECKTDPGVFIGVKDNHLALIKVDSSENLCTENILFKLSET
Nature of the assay: SPR Biacore T200, IgG captured on protein A chip, His-tagged human IL-33 analyte, 25 C, n=2; column head prints 'KD (nM)' but the E-notation cells are in M, unit corrected to M. As for the experimental part:
A protein A sensorchip (GE Healthcare) was used following manufacturer provided protocols to capture humanized anti-IL-33 antibodies using a BIACORE® T200 instrument (GE). Antibody binding was measured to human IL-33 (His-tagged) using multi-cycle kinetics. Sensorgrams for binding of IL-33 were recorded using an injection time of 2 min with a flow rate of 30 μl/min, at a temperature of 25° C., and with a running buffer of 10 mM HEPES, pH 7.4, 150 mM NaCl, 3 mM EDTA, and 0.005% TWEEN620. After injection, disassociation of IL-33 from the antibody was monitored for 10 min in running buffer. The surface was regenerated between binding cycles with a 30 μl injection of 10 mM Glycine HCl pH 1.5. After subtraction of a blank which contained running buffer only, sensorgrams observed for cytokine binding to anti-IL-33 antibody were analyzed using a 1:1 Langmuir binding model with software supplied by the manufacturer to calculate the kinetics and binding constants.
By Kd is commonly meant a measure of binding affinity in units of concentration. A lower Kd goes with tighter binding. As to B4, the Kd was found to be 121 pM.

B5 registered a Kd of 195 pM.

The molecule B6 showed a Kd of 172 pM.

In turn, B7 yielded a Kd of 286 pM.

On to B8, for which binding was characterised by a dissociation constant (Kd) of 151 pM.

B1: the Kd turned out to be 154 pM.

For B9, binding was put at a Kd of 144 pM. The Kd values of the last two molecules are within 1.5-fold of each other.

On to B10, for which binding was put at a Kd of 144 pM.

In turn, B11 showed a Kd of 149 pM.

B2: the affinity, expressed as Kd, was 118 pM.

Consider B12, for which the Kd was 132 pM. The Kd values of the last two molecules are within 1.5-fold of each other.

In turn, B3 yielded a Kd of 129 pM.

For B13, the Kd was 123 pM.

The molecule B14 returned a Kd of 146 pM.

Take B15: the Kd came out at 163 pM.

Consider B16, for which binding was put at a Kd of 202 pM.

B17 registered a Kd of 296 pM. This Kd and that of the molecule before are within 1.5-fold of each other.

Regarding B18, the affinity, expressed as Kd, was 179 pM.
